# B1: Hairpin Ribozyme (parent)
# chain: GUCCUCUUUCACGUGCGCGUGAAAGAGAGAAGUGAACCAGAGAAACACACGUUGUGGUAUAUUACCUGGUA
# Variants of: B1
# Assay: self-cleavage, relative activity (ratio to wild type); higher = more cleavage; co-transcriptional
row,Variant,self-cleavage
1,GUCCUCUUUCACGUGGGCGUGAAAGAGAGAAGUGAACCAGAGAAACACCCGUUGUGGUAUAUUACCUGGUA,0.117
2,GUCCUCUUUCACGUGGGCGUGAAAGAGAGAAGUGAACCAGAGAAACACACGUUGUGGUCUAUUACCUGGUA,0.17
3,GUCCUCUUUCACGUGGGCGUGAAAGAGAGAAGUGAACCAGAGAAACACACGUUGUGGUAUCUUACCUGGUA,0.2
4,GUCCUCUUUCACGUGGGCGUGAAAGAGAGAAGUGAAUCAGAGAAACACACGUUGUGGUAUAUUACCUGGUA,0.346
5,GUCCUCUUUCACGUGGGCGUGAAAGAGAGAAGUGAACAAGAGAAACACACGUUGUGGUAUAUUACCUGGUA,0.154
6,GUCCUCUUUCACGUGGGCGUGAAAGAGAGAAGUGAACGAGAGAAACACACGUUGUGGUAUAUUACCUGGUA,0.191
7,GUCCUCUUUCACGUGGGCGUGAAAGAGAGAAGUGAACCAGAGAAAAACACGUUGUGGUAUAUUACCUGGUA,0.224
8,GUCCUCUUUCACGUGGGCGUGAAAGAGAGAAGUGAACCAGAGAAAGACACGUUGUGGUAUAUUACCUGGUA,0.183
9,GUCCUCUUUCACGUGGGCGUGAAAGAGAGAAGUGAACCAGAGAAACAUACGUUGUGGUAUAUUACCUGGUA,0.154
10,GUCCUCUUUCACGUGGGCGUGAAAGAGAGAAGUGAACCAGAGAAACACAGGUUGUGGUAUAUUACCUGGUA,0.157
11,GUCCUCUUUCACGUGGGCGUGAAAGAGAGAAGUGAACCAGAGAAACACACGUUGUGGUAUAUUACAUGGUA,0.197
12,GUCCUCUUUCACGUGGUCGUGAAAGAGAGAAGUGAACCAGAGAAACACACGUUGUGGUAUAUUACCUGGUA,1.08
13,GUCCUCUUUCACGUGGGCGUAAAAGAGAGAAGUGAACCAGAGAAACACACGUUGUGGUAUAUUACCUGGUA,0.515
14,GUCCUCUUUCACGUGGGCGUCAAAGAGAGAAGUGAACCAGAGAAACACACGUUGUGGUAUAUUACCUGGUA,0.285
15,GUCCUCUUUCACGUGGGCGUGAAAGAGAAAAGUGAACCAGAGAAACACACGUUGUGGUAUAUUACCUGGUA,0.202
16,GUCCUCUUUCACGUGGGCGUGAAAGAGAUAAGUGAACCAGAGAAACACACGUUGUGGUAUAUUACCUGGUA,0.0825
17,GUCCUCUUUCACGUGGGCGUGAAAGAGAGAAAUGAACCAGAGAAACACACGUUGUGGUAUAUUACCUGGUA,0.179
18,GUCCUCUUUCACGUGGGCGUGAAAGAGAGAAGUCAACCAGAGAAACACACGUUGUGGUAUAUUACCUGGUA,1.22
19,GUCCUCUUUCACGUGGGCGUGAAAGAGAGAAGUGAACCACAGAAACACACGUUGUGGUAUAUUACCUGGUA,0.143
20,GUCCUCUUUCACGUGGGCGUGAAAGAGAGAAGUGAACCAUAGAAACACACGUUGUGGUAUAUUACCUGGUA,0.173
21,GUCCUCUUUCACGUGGGCGUGAAAGAGAGAAGUGAACCAGACAAACACACGUUGUGGUAUAUUACCUGGUA,0.152
22,GUCCUCUUUCACGUGGGCGUGAAAGAGAGAAGUGAACCAGAGAAACACACGUUCUGGUAUAUUACCUGGUA,0.393
23,GUCCUCUUUCACGUGGGCGUGAAAGAGAGAAGUGAACCAGAGAAACACACGUUGUCGUAUAUUACCUGGUA,0.2
24,GUCCUCUUUCACGUGGGCGUGAAAGAGAGAAGUGAACCAGAGAAACACACGUUGUGAUAUAUUACCUGGUA,0.0803
25,GUCCUCUUUCACGUGGGCGUGAAAGAGAGAAGUGAACCAGAGAAACACACGUUGUGGUAUAUUACCUAGUA,0.243
26,GUCCUCUUUCACGUGGGCGUGAAAGAGAGAAGUGAACCAGAGAAACACACGUUGUGGUAUAUUACCUUGUA,0.132

row,Variant,self-cleavage
1,GUCCUCUUUCACGUGGGCGUGAAAGAGAGAAGUGAACCAGAGAAACACACGUUGUGGUAUAUUACCUGAUA,0.225
2,GUCCUCUUUCACGUGGGCGUGAAAGAGAGAAGUGAACCAGAGAAACACACGUUGUGGUAUAUUACCUGUUA,0.196
3,GUCCUCUUUCACGUGGGCGUGAAAGAGAGAAGCGAACCAGAGAAACACACGUUGUGGUAUAUUACCUGGUA,0.188
4,GUCCUCUUUCACGUGGGCGUGAAAGAGAGAAGUGAACCAGAGAAACACACGUAGUGGUAUAUUACCUGGUA,0.855
5,GUCCUCUUUCACGUGGGCGUGAAAGAGAGAAGUGAACCAGAGAAACACACGUUGGGGUAUAUUACCUGGUA,0.247
6,GUCCUCUUUCACGUGGGCGUGAAAGAGAGAAGUGAACCAGAGAAACACACGUUGUGGGAUAUUACCUGGUA,0.749
7,GUCCUCUUUCACGUGGGCGUGAAAGAGAGAAGUGAACCAGAGAAACACACGUUGUGGUAUACUACCUGGUA,0.213
8,GUCCUCUUUCACGUGGGCGUGAAAGAGAGAAGUGAACCAGAGAAACACACGUUGUGGUAUAUAACCUGGUA,0.15
9,GUCCUCUUUCACGUGGGCGUGAAAGAGAGAAGUGAACCAGAGAAACACACGUUGUGGUAUAUGACCUGGUA,0.182
10,GUCCUCUUUCACGUGGGCGUGAAAGAGAGAAGUGAACCAGAGAAACACACGUUGUGGUAUAUUACCCGGUA,0.155
11,GUCCUCUUUCACGUGGGCGUGAAAGAGAGAAGUGAACCAGAGAAACACACGUUGUGGUAUAUUACCGGGUA,0.191
12,GUCCUCUUUCACGUGGGCGUGAAAGAGAGAAGUGAACCAGAGAAACACACGUUGUGGUAUAUUACCUGGAA,0.728
13,GUCCUCUUUCACGUGGGCGUGAAAGAGAGAAGUGAACCAGAGAAACACACGUUGUGGUAUAUUACCUGGCA,0.829
14,GUCCUCUUUCACGUGUGCGUGAAAGAGAGAAGUGAACCAGAGAAACACACGUUGUGGUAUAUUACCUGGUA,1.04
15,GUCCUCUUUCACGUGUGCGUGAACGAGAGAAGUGAACCAGAGAAACACACGUUGUGGUAUAUUACCUGGUA,1.12
16,GUCCUCUUUCACGUGUGCGUGAAAGUGAGAAGUGAACCAGAGAAACACACGUUGUGGUAUAUUACCUGGUA,0.817
17,GUCCUCUUUCACGUGUGCGUGAAAGAGAGGAGUGAACCAGAGAAACACACGUUGUGGUAUAUUACCUGGUA,0.157
18,GUCCUCUUUCACGUGUGCGUGAAAGAGAGACGUGAACCAGAGAAACACACGUUGUGGUAUAUUACCUGGUA,0.165
19,GUCCUCUUUCACGUGUGCGUGAAAGAGAGAAGUGCACCAGAGAAACACACGUUGUGGUAUAUUACCUGGUA,1.39
20,GUCCUCUUUCACGUGUGCGUGAAAGAGAGAAGUGGACCAGAGAAACACACGUUGUGGUAUAUUACCUGGUA,0.937
21,GUCCUCUUUCACGUGUGCGUGAAAGAGAGAAGUGAGCCAGAGAAACACACGUUGUGGUAUAUUACCUGGUA,1.34
22,GUCCUCUUUCACGUGUGCGUGAAAGAGAGAAGUGAACCAGUGAAACACACGUUGUGGUAUAUUACCUGGUA,1.4
23,GUCCUCUUUCACGUGUGCGUGAAAGAGAGAAGUGAACCAGAGACACACACGUUGUGGUAUAUUACCUGGUA,0.0379
24,GUCCUCUUUCACGUGUGCGUGAAAGAGAGAAGUGAACCAGAGAGACACACGUUGUGGUAUAUUACCUGGUA,0.101
25,GUCCUCUUUCACGUGUGCGUGAAAGAGAGAAGUGAACCAGAGAUACACACGUUGUGGUAUAUUACCUGGUA,0.154
26,GUCCUCUUUCACGUGUGCGUGAAAGAGAGAAGUGAACCAGAGAACCACACGUUGUGGUAUAUUACCUGGUA,0.066

row,Variant,self-cleavage
1,GUCCUCUUUCACGUGUGCGUGAAAGAGAGAAGUGAACCAGAGAAACACGCGUUGUGGUAUAUUACCUGGUA,0.659
2,GUCCUCUUUCACGUGUGCGUGAAAGAGAGAAGUGAACCAGAGAAACACACGUUGUGGUUUAUUACCUGGUA,0.173
3,GUCCUCUUUCACGUGUGCGUGAAAGAGAGAAGUGAACCAGAGAAACACACGUUGUGGUAUUUUACCUGGUA,0.256
4,GUCCUCUUUCACGUGUGCGUGAAAGAGAGAAGUGAACCAGAGAAACACACGUUGUGGUAUAUUGCCUGGUA,0.505
5,GUCCUCUUUCACGUGUGCGUGAAAGAGAGAAGUGAACCAGAGAAACACACGUUGUGGUAUAUUACCUGGUG,1.08
6,GUCCUCUUUCACGUGUGUGUGAAAGAGAGAAGUGAACCAGAGAAACACACGUUGUGGUAUAUUACCUGGUA,0.979
7,GUCCUCUUUCACGUGUGCGUGAAAGAGAGAAGUGAAGCAGAGAAACACACGUUGUGGUAUAUUACCUGGUA,0.182
8,GUCCUCUUUCACGUGUGCGUGAAAGAGAGAAGUGAACAAGAGAAACACACGUUGUGGUAUAUUACCUGGUA,0.172
9,GUCCUCUUUCACGUGUGCGUGAAAGAGAGAAGUGAACCAGAGAAAUACACGUUGUGGUAUAUUACCUGGUA,0.143
10,GUCCUCUUUCACGUGUGCGUGAAAGAGAGAAGUGAACCAGAGAAACACAUGUUGUGGUAUAUUACCUGGUA,0.366
11,GUCCUCUUUCACGUGUGCGUGAAAGAGAGAAGUGAACCAGAGAAACACACGUUGUGGUAUAUUAACUGGUA,1.15
12,GUCCUCUUUCACGUGUGCGUGAAAGAGAGAAGUGAACCAGAGAAACACACGUUGUGGUAUAUUACGUGGUA,0.228
13,GUCCUCUUUCACGUGUGCGUGAAAGAGAGAAGUGAACCAGAGAAACACACGUUGUGGUAUAUUACUUGGUA,0.397
14,GUCCUCUUUCACGUGUGCUUGAAAGAGAGAAGUGAACCAGAGAAACACACGUUGUGGUAUAUUACCUGGUA,0.661
15,GUCCUCUUUCACGUGUGCGUCAAAGAGAGAAGUGAACCAGAGAAACACACGUUGUGGUAUAUUACCUGGUA,0.749
16,GUCCUCUUUCACGUGUGCGUUAAAGAGAGAAGUGAACCAGAGAAACACACGUUGUGGUAUAUUACCUGGUA,0.991
17,GUCCUCUUUCACGUGUGCGUGAAACAGAGAAGUGAACCAGAGAAACACACGUUGUGGUAUAUUACCUGGUA,0.63
18,GUCCUCUUUCACGUGUGCGUGAAAGAAAGAAGUGAACCAGAGAAACACACGUUGUGGUAUAUUACCUGGUA,0.536
19,GUCCUCUUUCACGUGUGCGUGAAAGAGAUAAGUGAACCAGAGAAACACACGUUGUGGUAUAUUACCUGGUA,0.0547
20,GUCCUCUUUCACGUGUGCGUGAAAGAGAGAACUGAACCAGAGAAACACACGUUGUGGUAUAUUACCUGGUA,0.0977
21,GUCCUCUUUCACGUGUGCGUGAAAGAGAGAAUUGAACCAGAGAAACACACGUUGUGGUAUAUUACCUGGUA,0.134
22,GUCCUCUUUCACGUGUGCGUGAAAGAGAGAAGUAAACCAGAGAAACACACGUUGUGGUAUAUUACCUGGUA,1.26
23,GUCCUCUUUCACGUGUGCGUGAAAGAGAGAAGUUAACCAGAGAAACACACGUUGUGGUAUAUUACCUGGUA,0.885
24,GUCCUCUUUCACGUGUGCGUGAAAGAGAGAAGUGAACCAGAAAAACACACGUUGUGGUAUAUUACCUGGUA,0.225

# — the RNAGym collection of RNA variant scans (doi:10.7554/elife.80360)
